# Where a chain is given by its changes, count along the chain named.
# B1: VG9B189 (antibody, human IgG1, lambda, V domains shown)
# VH: EVQLVQSGGGLVKPGASLKLSCAASGFTFSNHGMSWVRQTSDKRLEWVASITRGGDTTYYPDNVKGRFTISRENAKNTLYLQMSSLKSDDTALYYCTRGPLTVGYAMDYWGQGTTVTVSS
# VL: QSVVTQPPSASGSPGQSVTISCTGTSSDVGGYNYVSWYQQHPGKAPKLMIYEVSKRPSGVPDRFSGSKSGNTASLTVSGLQAEDEADYYCNSYAGSNNFEVFGGGTKVTVLG
# notes: IgG1, lambda; specificity column: Vd2
# B2: VG9B47 (antibody, human IgG1, kappa, V domains shown)
# VH: QVQLVQSGAEVKKPGSSVKVSCKASGGSFSNYAISWMRQAPGQGLEWMGGIIPFFGTPDYAQKFQGRVTITADKSTSTAYMELSSLRSEDTAVYYCSTGGGYGDYDYYYGINVWGQGTMVTVSS
# VL: DIVMTQSPLSSPVDLGQPASISCRSSQSLVHSDGNTYLSWLQQRPGQPPRLLIYKISNRFSGVPDRFSGSGAGTDFTLKISRVEAEDVGVYYCMQAKEFPLTLGGGTKVDIKR
# notes: IgG1, kappa; specificity column: g/d constant
# B3: VG9B96 (antibody, human IgG1, kappa, V domains shown)
# VH: EVQLVQSGAEVKKPGSSVKVSCKASGGTFSNYAISWVRLAPGQGLEWMGGIIPIFSAGTYAQRFQGRVTITADKSTSTAYMELNSLRSEDTAVYYCSSNSGTYYDYYYGMDVWGQGTMVTVSS
# VL: B2 VL with P12H, D14T, S57F, F60L, E98Q, L103F, D110E
# notes: as for B2
# B4: VG9B136 (antibody, human IgG1, kappa, V domains shown)
# VH: QVQLQQSGPGLVKPSQTLSLTCAISGDSVSSNRAAWNWIRQSPSKGLEWLGRTYYRSKWYNEYAASVKSRMSINPDTSKNQFSLQLNSVTPEDTALYYCARDLWELREACDIWGQGTMVTVSS
# VL: DIVMTQSPSFLSTFVGDRVTITCRASQGISSYLAWYQQKPGKVPKLLIYVASTLQSGVPSRFSGSGSGTEFTLTISSLQPEDFATYYCQQLNSYPFTFGPGTKVDIKR
# notes: as for B2
# B5: VG9B112 (antibody, human IgG1, kappa, V domains shown)
# VH: QVQLQQSGPGLVKPSQTLSLTCAISGDSVSSNSAAWNWIRQSPSRGLEWLGGTYYRSKWFNNYAVSVKSRITINPDTSTNQFSLQLNSVTPADTAVYYCARGEWGLRDAFDIWGQGTMVTVSS
# VL: B4 VL with V3Q, T13A, F14S, T20I, S30H, F96W, P100Q, V104L, D105E
# notes: as for B2
# B6: VG9B53 (antibody, human IgG1, kappa, V domains shown)
# VH: QVQLQESGPGLVKPSETLSLTCTVSGGSISSYYWSWIRQPAGKGLEWIGRIHTIGSINYNPSLKSRVTMSVDTSKNQFSLKLSSVTAADTAVYYCAMEGVGATNYYYGMAVWGRGTMVTVSS
# VL: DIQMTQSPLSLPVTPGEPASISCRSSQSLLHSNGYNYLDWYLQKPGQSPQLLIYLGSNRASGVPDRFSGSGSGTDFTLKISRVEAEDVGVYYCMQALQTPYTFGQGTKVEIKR
# notes: IgG1, kappa; specificity column: Vd2
# B7: VG9B144 (antibody, human IgG1, lambda, V domains shown)
# VH: QVQLVQSGAEVKKPGASVKVSCKASGYTFTGYYMHWMRQAPGQGLEWMGWINPNSGATNKEQKFQGRVTMTRDTSISTAYMELSRLRSDDTAVYYCAREDDAFDVWGQGTMVTVSS
# VL: SSELTQDPAVSVALGQTVRITCQGDNLRNYYATWFQQKPGQAPVLVFFGKNNRPSGIPDRFSGSSSGDTASLTITGAQAEDEADYYCNSRDSSGNHVVFGGGTKLTVLG
# notes: IgG1, lambda; specificity column: g/d constant
# B8: VG9B379 (antibody, human IgG1, lambda, V domains shown)
# VH: EVQLVQSGPEVKKPGASVKVSCKASGYTFTGDYIHWVRQVPGQGLEWMGWINPNSGGTNYAQKFQGRVTMTRDTSISTAFMELSRLRSDDTAVYYCAREGGVAPAAPDAFDIWGQGTMVTVSS
# VL: B7 VL with N26S, N29S, T33R, F35Y, L45V, F47I, F48Y, D68N, V97R
# notes: as for B7
# B9: VG9B387 (antibody, human IgG1, lambda, V domains shown)
# VH: EVQLVESGAEVKKPGASVKVSCKASGFTFTGYYLQWVRQAPGQGLEWMGWINPNSGYTDYAQRFQDRVTMTRDTSINTAYMELSRLRSDDTAVYYCARLDDAFDVWGQGTMVTVSS
# VL: B7 VL with S2Y, N26S, T33I, F35Y, F47I, D68T, A77T, V97W
# notes: as for B7
# B10: VG9B392 (antibody, human IgG1, lambda, V domains shown)
# VH: QVQLVQSGAEVKRPGASAKVSCKTSGYTFTGYYIHWVRQAPGQGLEWMGWINPNSGYTNSAQKFQGRVSMTRDTSISTVYMELSRLRSDDTAVYYCAREDDAFDIWGQGTLVTVSS
# VL: B7 VL with N26S, N29S, T33R, F35Y, F47I, F48Y, Q78L, S92N, L105V
# notes: as for B7
# B11: VG9B125 (antibody, human IgG1, kappa, V domains shown)
# VH: EVQLVESGGTLVQPGGSLRLSCAVSGFTFSSYDMNWVRQAPGKGLEWVSYISSSSTAKYYADSVKGRFTISRDNAKNSLYLQMNSLWDEDTAVYYCAREDIVVVTPILQHWGQGTTVTVSS
# VL: EIVMTQSPATLSLSPGERAILSCRASQSVSKDLAWYQQKPGQAPRLLIYDASNRATGIPARISGSGSGTDFTLTISSLEPEDFAVYYCQQRINWPLFTFGPGTKVEIKR
# notes: as for B2
# B12: VG9B41 (antibody, human IgG1, kappa, V domains shown)
# VH: QVQLQESGPQLVRPGASVKISCKASGYSFTTYWMHWVKQRPGQGLEWIGLIDPSDSETRLNQKFKDKATLTVDKSSSTAYMRLSSPTSEDSAVYYCASNRWLLGWGQGTMVTVSS
# VL: EIVLTQTPLSSPVTLGQPASISCRSSQSLVHSDGNTYLSWLHQRPGQPPRLLIYKISNRFSGVPDRFSGSGAGTDFTLKISRVETEDVGVYYCVQTREFPLTFGGGTKVEIKR
# notes: as for B6
# B13: VG9B77 (antibody, human IgG1, kappa, V domains shown)
# VH: EVQLVESGAEVMKPGSSVKVSCKASGGTFSSYAISWVRQAPEQGLEWMGGIIPFFGTADYAQKFQGRVTITADKSTNTAYMELTSLRSEDTAVYYCATATVTTDYYYGMDVWGQGTMVTVSS
# VL: B2 VL with D1E, S10F, D14T, K55E, S61T, K97R, E98Q, L103F, D110E
# notes: as for B2
# B14: VG9B386 (antibody, human IgG1, kappa, V domains shown)
# VH: EVQLVESGGGLVKPGGSLRLSCAASGFTFSSYSMIWVRQAPGKGLEWVSSIGSSSTYIYYADSVRGRFTISRDNAKTSLYLQMNSLRAEDTAMYFCARDGETGGFDYWGQGILVTVSS
# VL: EIVMTQSPGTLSLSPGERATLSCRASQSISRSYLAWYQQKPGQPPRLLIYGPSNRATGIPDRFSASGSGTDFTLTNSRLEPEDFAVYYCQQYGSLPLTFGGGTKVEIKR
# notes: as for B2
# B15: VG9B369 (antibody, human IgG1, kappa, V domains shown)
# VH: EVQLLESGPTLVKPTQTLTLTCTFSGFSLSTIGVGVGWIRQPPGKALEWLSLIYWNDDKRYNPSLKSRLTITKDTSKNQVVLTMTNMDPVDTATYYCAHSHDWVHAFDIWGQGTMVTVSS
# VL: DIVMTQSPSSLSASVGDRVTITCQASQDISHYLNWYQQKPGKAPKFLIYDASNLDTGVPSRFSGSGSGTDFTFTISSLQPEDIATYYCQQYDNFPLTFGGGTKVEIKR
# notes: as for B2
# B16: VG9B447 (antibody, human IgG1, lambda)
# heavy: not shown
# light: SYELTQPASVSGSPGQSITISCTGTSSDVGGYNYVSWYQQHPGKAPKLMIYEVSNRPSGVSNRFSGSKSGNTASLTISGLQAEDEADYYCSSYTSTSVVFGGGTKLTVLGQPKAAPSVTLFPPSSEELQANKATLVCLISDFYPGAVTVAWKADSSPVKAGVETTTPSKQSNNKYAASSYLSLTPEQWKSHRSYSCQVTHEGSTVEKTVAPTECS
# notes: as for B7
# B17: VG9B410 (antibody, human IgG1, kappa)
# heavy: not shown
# light: DIQMTQSPSSVSASVGDRVTITCRASQGINSWLAWYQQKPGNAPKLLIYAASSLQSGVPSRFSGIGSGTDFIFTISSLQPEDFASYYCQQANSFPWTFGQGTKVEIKRTVAAPSVFIFPPSDEQLKSGTASVVCLLNNFYPREAKVQWKVDNALQSGNSQESVTEQDSKDSTYSLSSTLTLSKADYEKHKVYACEVTHQGLSSPVTKSFNRGEC
# notes: as for B2
# B18: VG9B436 (antibody, human IgG1, lambda)
# heavy: not shown
# light: B16 light with S1Q, Y2S, E3V
# notes: IgG1, lambda
# B19: VG9B434 (antibody, human IgG1, lambda)
# heavy: not shown
# light: B16 light with S1Q, Y2S, E3V
# notes: IgG1, lambda
# B20: VG9B460 (antibody, human IgG1, lambda)
# heavy: not shown
# light: B16 light with S1Q, Y2L, E3V
# notes: IgG1, lambda
# Target: T1, γδ T cell receptor on human γδ T cells (human)
# T1 construct: whole, on cells; Target is the γδ TCR on a mixed population of human γδ T cells; also called AG000003021 (γδ T cells)
# Assay: flow cytometry DRC binding 37 C, human γδ T cells
# Protocol: (§1) Binding of antibodies to human γδ T cells or SKW cell lines expressing Vγ9/Vδ2, Vγ9/Vδ2 or Vγ5/Vδ2 was carried out by flow cytometry. Briefly, the cells were centrifuged at 300×g for 5 minutes and the pellet was resuspended in 34 ml fresh media (in RPMI+10% FBS). 50 μL of the cells were then plated (44K cells/well) into assay plates. Samples were incubated for one hour at 37° C. in tissue culture (TC) incubator followed by wash steps by adding 100 μl FACS staining buffer. Secondary detention antibodies (A647 conjugated anti-human IgG Fc specific antibody (2 μg/mL) along with AF488 anti mouse CD3, clone OKT3 at 1 ug/mL) were added at 50 μL/well to appropriate wells according to the plate map. After incubating for 60 minutes at 37° C. in the TC incubator, cells were again washed as described above. This is followed by resuspension in 20 μL/well running buffer containing 1:1000 dilution of Sytox blue dead cell stain and the plates were run on iQue Screener.
# (§2) Gating and data analysis: Human anti-human Vγ9 antibody (VG9B2 mAb at 10 nM) was used to mark the gating of positive population. All cells were first gated for singlets on SCS-A vs. SCS-H dot plot, live/dead followed by CD3 positive population, and this subset of CD3 positive population was gated for Vγ9 positive binding using positive control mAb. Cells were also assessed for cell binding of control mAbs by RL1 (A647) Geomeans from the live cell population. Advanced metrics were used and normalization metrics were chosen to calculate fold over background wells containing secondary antibody alone (designated as ‘background’ within ForeCyt settings).
row,Binder,Max. Activity [fold over background]
1,B1,739
2,B2,1560
3,B3,1020
4,B4,2680
5,B5,1990
6,B6,536
7,B7,2430
8,B8,1460
9,B9,1970
10,B10,1250
11,B11,1990
12,B12,137
13,B13,772
14,B14,2110
15,B15,2430
16,B16,1420
17,B17,2250

# Target: T2, γδ T cell receptor on human γδ T cells (human)
# T2 construct: also called AG000003021 (γδ T cells)
# Assay: flow cytometry, DRC binding 37 C, human γδ T cells
# Protocol: as §1, §2
row,Binder,Max. Activity [fold over background]
1,B18,812
2,B19,804
3,B20,767

# From patent US20220125947A1 (published 2022)
